Data on 17 sequences can be found in a protein production outcome set (Wang et al. 2014).

This series is described as follows: label from the status in PepcDB records.
Turning to “MDEADSGGIVTARNVDLSSCDRELVQYPEAIQPHGAMLTVDEQSDRVLHASANCAAFIGKPPEAVIGAPIAAVLGAGWHELLGSLHRMPLDSGPVNIARESFLGSDQGWHLFAHRCGGLIILEFEKAEPEAAGTTSNLYSEVRADLAALQATEGVQAFFDLAVERIRAFTGYDRVMAYRFAEDGSGQVIAEARRDDLEPYLGLHYPATDIPAPARRLFALSWVRHLPDVGYTPVPLLAAKSPLVTGPVDMSFASLRSVSVMYTGYLKNMGVQSTLVMPLVKEGRLWGLISAMHHAAPRHISHQMRMAAEFLAHTLSLLMSAKEDAEQFERSSARKAAAEALTRLLDSEADIGAALHAAGALDLLSALIDAGGVVVQTGDEVATRGEAPAAAPLHELTSWLRERARPVFATDRLPNLDPAAQAVASQASGVLALRPLPDQPMLIAWLRPEQIEDVQWAGDPRKPVEISDADGMQRLRPRNSFALWKESVQGRAVPWRDDEKDAATRLAAAIAEIAAARKGRIERINRALDASHSELSRYTDVASAELKEHLRGIHHLTTSLRRRQGEVLDEEGRQQVATILKLTQRMDALVDALLDRSRGGSEAASETVDLEAVVDDALAPFARRIAEDRIEVRRPMRLGTAQGHREWIGEVFTNLIGNAIRYNDKPERWIEIGVEAGSPPRYYVRDNGIGIADTDQQLVFQMFHRVDQSEQKAEGAGVGLAMTRRIVAHHGGRIWVQSRLGEGATFYFTLAPDEERHDA”, the protein production entry is on record as “failed”.

Regarding “MDEIDLRILKILQYNAKYSLDEIAREIRIPKSTLSYRIKKLEKDGVIKGYYAYINPASLNLDYIVITSVKAKYGKNYHVELGNKLAQIPGVWGVYFVLGDNDFIVMARYKTREEFMEKFLERVMSIPEVERTSTQVVVKIIKESPNIVIF”, the protein production entry is listed as “not failed”.

Take “MDEIESLIGLRPTPLTWPVVIAGDFLGVWDPPPSLPGAANHEISAPTARISCMLIERRDAAARLRRALHRAPVVLLTGPRQAGKTTLSRLVGKSAPECTFDAENPVDATRLADPMLALSGLSGLITIDEAQRIPDLFPVLRVLVDRPVMPARFLILGSASPDLVGLASESLAGRVELVELSGLTVRDVGSSAADRLWLRGGLPPSFTARSNEDSAAWRDGYITTFLERDLAQLGVRIPAATMRRAWTMLAHYHGQLFSGAELARSLDVAQTTARRYLDALTDALVVRQLTPWFANIGKRQRRSPKIYIRDTGLLHRLLGIDDRLALERNPKLGASWEGFVLEQLAALLAPNPLYYWRTQQDAELDLYVELSGRPYGFEIKRTSTPSISRSMRSALVDLQLARLAIVYPGEHRFPLSDTVVAVPADQILTTGSVDELLALLK”: the protein production entry is “failed”.

As for “MDEKPAITKIISGGQTGADRAALDFAIKHHIPYGGWVPKGRLAEGGRVPETYQLQEMPTSDYSKRTEKNVLDSDGTLIISHGILKGGSALTEFFAEQYKKPCLHIDLDRISIEDAATLINSWTVSHHIQVLNIAGPRAGKDPEIYQATMDLLEVFLA”, the protein production result is reported as “not failed”.

In the case of “MDELFAKAPIKKVYFKLALPVVLGMITTMIYNLADTMFVAKTSDTNLVAGITIGAPLFTFLIAVSDIFGLGGSSLISRLFGERNYQLSKRVSSFCMIGGFVTGLILTAILLIFENPILHLLGAKAATYQDAADFYRIISIGAAPIVFSIIPQNLIRTEGLATQAMIATMTGTILAIILDPIFLFVFKMGAIGVGIANITGYLVTDIILIYYVLCKTEYIKLKLKYTKISGKTIKDIVAIGIPGSITNFAQSFGMALLNSSLALYGANKVAAMGITQKIYSIVILVIVGFAFGSQPLIGYNYGAKNWKRLKKILNFDILVQVVYAVVSGGLLILFARPVTALFMNQPDIVNAGSYMLIATIITTPIVGIILVYTTVFQSVGNAWAAFIMAIARQGVVYFIALETLKNIFGYHGIVWAQAVSDVITCIIGYFIYEKSLDLKDKIKN”, the protein production result is “failed”.

In the case of “MDERRAVVLVDELHLRKGGYEAEKVRVFAVRVSETLWAFKALWGSTPFTGTTFV”, the protein production entry was “failed”.

For the sequence “MDEYAGRVLADRYRLPLPPSDEYELAETRAFDTYSGQEVLVRQVPLPEVVEAEVLDADGLPAGFVARDGGTRRASARTATRRPAEPAVRRAIEAAQAAAQIPDHPRLDQVFDVFAEGGSLWIVSELVAARPLAALLADKPLSPYRAAEVASDVLMALRVLHAHGWVHRNITVRTVLVCDDGRVMLTGLAAGAAEEALCGYDPVPVRDFEPRGDDGGDGTGGNGRGAVRGAAAGGTPGIGSGPGAGSGRPGIGAGSGGPVGAAGGAVGAAAGGMSVAEAEAARRAAIEARAGGVGPVAGTPGGEVPARGARALEGGGDARAQRAGAIAAYRAGARAAARVQEAQRGGRAALPAPRPADAEGRAPQSPGHGVEHLPGALPGQIADPYGVARTNSWPGGFPGDVGGANVGGAYGTPGNGSGTYENGSVPHAPADAPVSTPTPADAVPPTHWDHLVSGSSAPSGPSAASVPRRGPTTALAAERARQARMAVIGPVTERWAPEQAGPVHENWQLAAPIGPATDLWALGALLFRAVQGHAPYPEENTAELVQLVCAEPPAFAEECGPLRPVVESLLRQDPTERLDFEEVRGWLRSLVRSAPEPEAGAHVVAAPPVDPRRLPIVRRRGELVRRRRARLPATTPHARHKRAKDGRPPRPKRLGRNLVLLILLVLAAAVAYAMVFMPKASPNSDSGSRSDGDRTGAAGGVSPAPEQSGGGSEPRPDQTSPGSGKSPSGSSGSTREQTTDPDVAQGFTLRKDPEGFRVAVATGWDRAPKNGRGRIVYSHGDFELIVVPGRDSTADHGSDPLTYQRETESELQPFRDSTWATSSGMRRIDVGGRTMAEGQFTWTDGQGRELFVRNLAIVVGGRYHVVQLRGPEAERDEVTRLYEQASRTYQVTG”, the protein production result was “failed”.

In the case of “MDFAFEKVARDWFVRWSKGRSEKYAGQVMRNFERWVFPAIGNLDIRQVRTADVVGCLRVMEARGIVDTLRKTKNSLKMVFAFAVGSGMMEINPVAQIGSGVFERLEHHHHHH”, the protein production result was “failed”.

Regarding “MDFGLATTLYPDEYNYQTDAYSPTSSPVDLVQVIQQLHASLDPRTVFACYGKVLGQHLPIQGVRLQSEQHKLSWGKRYGISLKRQIICGGTPLTLQYQLLTPLTPSQSICLQEIEPLLLQPLLNAMQYQEMSMQAMFDALTGLGNRHYYSQSLKNAVARAQRKQGSVSLIVLDLDNFKKLNDKYGHKCGDYILKEFGDIIRSSIRSTDQAFRIGGDEFVVIVQGNIHAAGLLCERIVSATNTHASFHQFGVSCSLGAAEASETMEAEQLYEQADKTLYQAKASGRNCYKLSPTQLS”, the protein production entry was “failed”.

On to “MDFGTQGPQAPAELAWLRGVDAYTMGAYPQAEEEFRAAVRIDPTMADGWLGLHALRVDTTNALLRMFRNRDRFGEQRARHRRTLNSWYWLGWWVQPVLENPRDLLLAHASHWLDGRHVPELDRALAGLPPVDSDAQVRFLHACRAYLVKDWEQLVRHTDPLLGDPLLGIEAGLFSGMARVRLEMYGQAEPLLSAALMRCRSEQPQRKELRYWLARAHEGTGRSAAALPLYRAVHRVDPAFMDTSARLAAIAEGDGYDDPADLTGYAQAGAGTDGLDGLDPLFGTEERGVKVSAPEPALSAPLPPLGGPSVREKAGGPDPSLPSGPTDPALLEEALAELERMVGLEPVKRQVKALSAQLNMARLRAGQGLPVQPPKRHFVFSGPSGTGKTTVARILGRVFYALGLLGGDHLVEAQRADLVGEYLGQTAVKANELIDSALGGVLFVDEAYSLSNSGYGKGDAYGDEALQVLLKRAEDNRDHLVVILAGYPEGMDRLLGANPGLSSRFTTRVDFPSYRPLELTSIGEVLAAENGDVWDEEALDELRSIAGHVVDQGWIDELGNGRFLRTLYEKSCAYRDLRLSVYPGALTRDDLATLRLPDLMQAYGEVLSGRGPGGPSAG”, for which the protein production entry is listed as “failed”.

With “MDFHIRKATNSDAEAIQHVATTSWHHTYQDLIPSDVQDDFLKRFYNVETLHNRISATPFAVLEQADKVIGFANFIELEKGKSELAAFYLLPEVTQRGLGTELLEVGMTLFHVPLPMFVNVEKGNETAIHFYKAKGFVQVEEFTEDFYGYPLETIRFNLNH”, the protein production entry is “not failed”.

“MDFKQRHTWLKIASCKSISAKKRASIWQKLTEFDQYEMTTQTFAESFFPVDKLAQILMELETAEACFFDDVTLIWILDDAYPALLREIYEAPPILFCKGNIDLLQQQAIAIVGTRQMSEYGRKACMKIASELAENKLTIVSGMAIGIDSTAHRATLNKQGATIAVLGSGVNKVYPKKNELLAKEIVKEGLLLSEYLPDEEAKRWHFPERNRIISGLAIGTVIIEAAERSGSLITADIALEQNRQVFAVPGNIFIDTWQGTNYLIQEGAKLVMNSNNIIEEFIQIKP”: the protein production entry is recorded as “failed”.

Turning to “MDFLARATAIVGNTMVLMRRFGSPGTQAIGQSPAIPEAQKQGIMTLKMPAAKGWAPGHLPTPAPGLKVNAFARDLEHPRWIEVLPSGDVLVAEARQLPTPPKTLLDRAAQATMRRIRALGDSPNRITLLRDPDGRGEAQERETFLENQSQPFGMALVGDTFYVGNTDGIMAFPYRPGATRLEGPGRRLTTFKPGGHWTRSLIVSPDGRRIYAGVGSLSNIGDDGMEAEEGRAAIWELDLASGQARIYASGLRNPVGLAWEPTTRVLWTVVNERDGLGDETPPDYLTSVEEDGFYGWPYCYWNRIVDDRVPQDPAMVARAITPDYALGGHTASLGLCWVPAGTLPGFGDGMAIGQHGSWNRSKLSGYRLIFVPFANGRPSGPPRDILTGFLSDDEKLAYGRPVGVAVGPDRRSLLLADDVGDVIWRVTGALEHHHHHH”, the protein production result is reported as “failed”.

For “MDFPTISRSPSGPPAMDLEGPRDILVPSEDLTPDSQWDPMPGGPGSLSRMELDESSLQELVQQFEALPGDLVGPSPGGAPCPLHIATGHGLASQEIADAHGLLSAEAGRDDLLGLLHCEECPPSQTGPEEPLEPAPRLLQPPEDPDEDSDSPEWVEGASAEQEGSRSSSSSPEPWLETVPLVTPEEPPAGAQSPETLASYPAPQEVPGPCDHEDLLDGVIFGARYLGSTQLVSERNPPTSTRMAQAREAMDRVKAPDGETQPMTEVDLFVSTKRIKVLTADSQEAMMDHALHTISYTADIGCVLVLMARRRLARRPAPQDHGRRLYKMLCHVFYAEDAQLIAQAIGQAFAAAYSQFLRESGIDPSQVGVHPSPGACHLHNGDLDHFSNSDNCREVHLEKRRGEGLGVALVESGWGSLLPTAVIANLLHGGPAERSGALSIGDRLTAINGTSLVGLPLAACQAAVRETKSQTSVTLSIVHCPPVTTAIIHRPHAREQLGFCVEDGIICSLLRGGIAERGGIRVGHRIIEINGQSVVATPHARIIELLTEAYGEVHIKTMPAATYRLLTGQEQPVYL”, the protein production result is given as “not failed”.

Consider “MDFQHRPGGKTGSGGVASSSESNRDRRERLRQLALETIDINKDPYFMKNHLGSYECKLCLTLHNNEGSYLAHTQGKKHQTNLARRAAKEAKEAPAQPAPEKVKVEVKKFVKIGRPGYKVTKQRDSEMGQQSLLFQIDYPEIAEGIMPRHRFMSAYEQRIEPPDRRWQYLLMAAEPYETIAFKVPSREIDKAEGKFWTHWNRETKQFFLQFHFKMEKPPAPPSLPAGPPGVKRPPPPLMNGLPPRPPLPESLPPPPPGGLPLPPMPPTGPAPSGPPGPPQLPPPAPGVHPPAPVVHPPASGVHPPAPGVHPPAPGVHPPAPGVHPPTSGVHPPAPGVHPPAPGVHPPAPGVHPPAPGVHPPAPGVHPPPSAGVHPQAPGVHPAAPAVHPQAPGVHPPAPGMHPQAPGVHPQPPGVHPSAPGVHPQPPGVHPSNPGVHPPTPMPPMLRPPLPSEGPGNIPPPPPTN”, for which the protein production entry is “failed”.

“MDFSKAFGLVYKALDYRSLRQDMIASNIANVDTPFYRPKDLDFESVLAKKKAEIFENQSSKVLPLAHTNPRHLDFENSAKDGASLFFRDGHLAKNDGNSVDLDIETSEMGKNSTMYLALSSALKKYRGVINYAIDSSKNL”: the protein production result is on record as “failed”.

With “MDFSQLGGLLDGMKKEFSQLEEKNKDTIHTSKSGGGMVSVSFNGLGELVDLQIDDSLLEDKEAMQIYLMSALNDGYKAVEENRKNLAFNMLGNFAKL”, the protein production entry is reported as “not failed”.
